Laboratory results published in paper PMC6212786 (Nucleic Acids Research, 2018).

Experiments:
DNA substrate = experiment: in vitro DNA ligation activity; assay type: biochemical
[1] = tested on: nicked substrates containing a single 5′-terminal ribonucleotide adjacent to the nick; settings: cited from earlier work

B1: gp44/62: T4 clamp-loader prepared by co-expressing gp44 and gp62 (protein, UniProt P04526 1-319; P04527 1-187, looked up)
Sliding-clamp-loader large …: MITVNEKEHILEQKYRPSTIDECILPAFDKETFKSITSKGKIPHIILHSPSPGTGKTTVAKALCHDVNADMMFVNGSDCKIDFVRGPLTNFASAASFDGRQKVIVIDEFDRSGLAESQRHLRSFMEAYSSNCSIIITANNIDGIIKPLQSRCRVITFGQPTDEDKIEMMKQMIRRLTEICKHEGIAIADMKVVAALVKKNFPDFRKTIGELDSYSSKGVLDAGILSLVTNDRGAIDDVLESLKNKDVKQLRALAPKYAADYSWFVGKLAEEIYSRVTPQSIIRMYEIVGENNQYHGIAANTELHLAYLFIQLACEMQWK
Sliding-clamp-loader small …: MSLFKDDIQLNEHQVAWYSKDWTAVQSAADSFKEKAENEFFEIIGAINNKTKCSIAQKDYSKFMVENALSQFPECMPAVYAMNLIGSGLSDEAHFNYLMAAVPRGKRYGKWAKLVEDSTEVLIIKLLAKRYQVNTNDAINYKSILTKNGKLPLVLKELKGLVTDDFLKEVTKNVKEQKQLKKLALEW
DNA ligase activity of the preparation (DNA substrate; control of gp45 and gp44/62 preparations, data not shown): no detectable DNA ligase activity

B2: T4LΔ(222–247)GS: internally truncated construct with a di-amino acid Gly-Ser substituted for residues 222–247 (protein)
chain: MILKILNEIASIGSTKQKQAILEKNKDNELLKRVYRLTYSRGLQYYIKKWPKPGIATQSFGMLTLTDMLDFIEFTLATRKLTGNAAIEELTGYITDGKKDDVEVLRRVMMRDLECGASVSIANKVWPGLIPEQPQMLASSYDEKGINKNIKFPAFAQLKADGARCFAEVRGDELDDVRLLSRAGNEYLGLDLLKEELIKMTAEARQIHPEGVLIDGELVYHGSAEVAESRTASNGIANKSLKGTISEKEAQCMKFQVWDYVPLVEIYSLPAFRLKYDVRFSKLEQMTSGYDKVILIENQVVNNLDEAKVIYKKYIDQGLEGIILKNIDGLWENARSKNLYKFKEVIDVDLKIVGIYPHRKDPTKAGGFILESECGKIKVNAGSGLKDKAGVKSHELDRTRIMENQNYYIGKILECECNGWLKSDGRTDYVKLFLPIAIRLREDKTKANTFEDVFGDFHEVTGL
modifications: left off: His6 (LEHHHHHH), C-terminal, kept
in vitro DNA ligation activity relative to wild-type (DNA substrate; vs wild-type T4 DNA ligase, Supplementary Figures S8, S10): comparable or slightly better

B3: E. coli LigA: E. coli NAD+-dependent DNA ligase (protein, UniProt P15042 1-671, looked up)
DNA ligase: MESIEQQLTELRTTLRHHEYLYHVMDAPEIPDAEYDRLMRELRELETKHPELITPDSPTQRVGAAPLAAFSQIRHEVPMLSLDNVFDEESFLAFNKRVQDRLKNNEKVTWCCELKLDGLAVSILYENGVLVSAATRGDGTTGEDITSNVRTIRAIPLKLHGENIPARLEVRGEVFLPQAGFEKINEDARRTGGKVFANPRNAAAGSLRQLDPRITAKRPLTFFCYGVGVLEGGELPDTHLGRLLQFKKWGLPVSDRVTLCESAEEVLAFYHKVEEDRPTLGFDIDGVVIKVNSLAQQEQLGFVARAPRWAVAFKFPAQEQMTFVRDVEFQVGRTGAITPVARLEPVHVAGVLVSNATLHNADEIERLGLRIGDKVVIRRAGDVIPQVVNVVLSERPEDTREVVFPTHCPVCGSDVERVEGEAVARCTGGLICGAQRKESLKHFVSRRAMDVDGMGDKIIDQLVEKEYVHTPADLFKLTAGKLTGLERMGPKSAQNVVNALEKAKETTFARFLYALGIREVGEATAAGLAAYFGTLEALEAASIEELQKVPDVGIVVASHVHNFFAEESNRNVISELLAEGVHWPAPIVINAEEIDSPFAGKTVVLTGSLSQMSRDDAKARLVELGAKVAGSVSKKTDLVIAGEAAGSKLAKAQELGIEVIDEAEMLRLLGS
ligation activity on nicked substrate with 5′-terminal ribonucleotide [1]: ligates this substrate as well as it does a regular DNA substrate

B4: T4 DNA ligase: Full-length wild-type T4 DNA ligase (residues 1–487) (protein, UniProt P00970 1-487, looked up)
chain: MILKILNEIASIGSTKQKQAILEKNKDNELLKRVYRLTYSRGLQYYIKKWPKPGIATQSFGMLTLTDMLDFIEFTLATRKLTGNAAIEELTGYITDGKKDDVEVLRRVMMRDLECGASVSIANKVWPGLIPEQPQMLASSYDEKGINKNIKFPAFAQLKADGARCFAEVRGDELDDVRLLSRAGNEYLGLDLLKEELIKMTAEARQIHPEGVLIDGELVYHEQVKKEPEGLDFLFDAYPENSKAKEFAEVAESRTASNGIANKSLKGTISEKEAQCMKFQVWDYVPLVEIYSLPAFRLKYDVRFSKLEQMTSGYDKVILIENQVVNNLDEAKVIYKKYIDQGLEGIILKNIDGLWENARSKNLYKFKEVIDVDLKIVGIYPHRKDPTKAGGFILESECGKIKVNAGSGLKDKAGVKSHELDRTRIMENQNYYIGKILECECNGWLKSDGRTDYVKLFLPIAIRLREDKTKANTFEDVFGDFHEVTGL
modifications: full-length
ligation activity on nicked substrate with 5′-terminal ribonucleotide [1]: better ligation activity on the same substrate, although a fraction of the adenylated intermediate fail to complete the nick-sealing reaction
